Reference: patent publication CN115558029A
Where two headings read alike, the source gives them in different places.

Experiments:
[1] = biological target: 人PD-1蛋白(北京百普赛斯，货号PD1-H5221) (human) (UniProt Q15116); test: binding ELISA on coated PD-1 protein
[2] = biological target: PD-1 on Jurkat/PD-1细胞(Promega) (UniProt Q15116); test: cell-based or functional assay
[3] = biological target: 人PD-1蛋白(北京百普赛斯，货号PD1-H5221) (human) (UniProt Q15116); test: binding ELISA, human PD-1 protein coated at 1 μg/mL, anti-human IgG (Fc)-HRP
[4] = biological target: PD-1 on Jurkat/PD-1细胞(Promega) (UniProt Q15116); test: cell-based or functional assay; remark: listed apart in the source
[5] = biological target: 人PD-1蛋白(北京百普赛斯，货号PD1-H5221) (human) (UniProt Q15116); test: binding ELISA on coated PD-1 protein; remark: listed apart in the source
[6] = biological target: 人PD-1蛋白(北京百普赛斯，货号PD1-H5221) (human) (UniProt Q15116); test: binding ELISA on coated PD-1 protein; remark: listed apart in the source
[7] = biological target: 人PD-1蛋白(北京百普赛斯，货号PD1-H5221) (human) (UniProt Q15116); test: binding ELISA on coated PD-1 protein; remark: listed apart in the source
[8] = biological target: PD-1 on Jurkat/PD-1细胞(Promega) (UniProt Q15116); test: cell-based or functional assay; remark: listed apart in the source

B1: PD-1VHH抗体克隆huVHH3-3 (VHH, part only; not given: format as tested, part only)
VHH, part: EVQLVESGGGLVQPGGSLRLSCAASGRTSSMYAMGWFRQAPGNEREFVAGIGWENNTPYYARSVEGRFTISRDNVKNTVFLQMNRLRAEDTAVYYCAAQIGISGTLGDYWGQGTQVTVSS
- EC50 [1]: 0.0164 µg/mL
- EC50, PD-1报告基因法 [2]: 0.5 µg/mL
- EC50 [3]: 0.0202 µg/mL
- EC50, PD-1报告基因法 [4]: 0.2 µg/mL
- EC50, 报告基因法 (CHO/PD-L1 + Jurkat/PD-1, One-Glo luminescence) [4]: 0.2 to 0.5 µg/mL
- EC50 [5]: 0.0053 µg/mL
- EC50 [6]: 0.0122 µg/mL
- EC50 [7]: 0.0073 µg/mL
- EC50, PD-1报告基因法 [8]: 0.4 µg/mL
